Experimental data: the Human Domainome abundance scans (Beltran et al. 2025)
± gives the uncertainty stated by the source.

B1: Tripartite motif-containing protein 44, residues 174 to 218; numbered along this chain, Q96DX7 (parent)
chain: VAKRKCPDHGLDLSTYCQEDRQLICVLCPVIGAHQGHQLSTLDEA

Variants of: B1
Test: abundance fitness (aPCA) (normalised: wild type 0, dead -1); higher = more abundant; growth selection in yeast, the domain comes from the species named
Settings: Homo sapiens

Abundance fitness, by site and new letter:
Y16: C -0.132 ± 0.043 | D -0.276 ± 0.037 | E -0.033 ± 0.031 | F -0.069 ± 0.043 | G -0.373 ± 0.027 | H -0.053 ± 0.041 | I 0.127 ± 0.1 | K -0.059 ± 0.037 | L -0.054 ± 0.031 | M -0.011 ± 0.031 | N -0.167 ± 0.049 | P -0.379 ± 0.038 | Q -0.029 ± 0.035 | R -0.043 ± 0.028 | S -0.16 ± 0.031 | T 0.029 ± 0.036 | V -0.052 ± 0.028 | W -0.039 ± 0.03
C17: A -0.641 ± 0.031 | D -0.631 ± 0.064 | E -0.546 ± 0.035 | F -0.334 ± 0.16 | G -0.557 ± 0.027 | H -0.818 ± 0.098 | I -0.759 ± 0.091 | K -0.657 ± 0.052 | L -0.982 ± 0.059 | M -0.779 ± 0.067 | N -0.701 ± 0.15 | P -0.751 ± 0.056 | Q -0.633 ± 0.045 | R -0.484 ± 0.029 | S -0.562 ± 0.038 | T -0.705 ± 0.047 | V -0.753 ± 0.036 | W -0.931 ± 0.045 | Y -0.767 ± 0.094
Q18: A -0.021 ± 0.026 | C -0.041 ± 0.037 | D 0.009 ± 0.039 | E 0.008 ± 0.03 | F -0.109 ± 0.048 | G -0.111 ± 0.026 | H 0.035 ± 0.072 | I -0.058 ± 0.1 | K 0.037 ± 0.043 | L -0.061 ± 0.029 | M -0.01 ± 0.041 | N -0.01 ± 0.06 | P -0.038 ± 0.04 | R -0.043 ± 0.026 | S -0.015 ± 0.031 | T -0.06 ± 0.034 | V -0.086 ± 0.028 | W -0.189 ± 0.031 | Y 0.08 ± 0.066
E19: A -0.045 ± 0.027 | C -0.063 ± 0.034 | D 0.045 ± 0.039 | F -0.097 ± 0.05 | G -0.093 ± 0.025 | H -0.032 ± 0.045 | I -0.063 ± 0.065 | L -0.081 ± 0.027 | M -0.108 ± 0.032 | N -0.033 ± 0.04 | P -0.198 ± 0.035 | Q -0.062 ± 0.031 | R -0.098 ± 0.027 | S -0.048 ± 0.028 | T -0.01 ± 0.037 | V -0.06 ± 0.027 | W -0.153 ± 0.028 | Y -0.082 ± 0.058
D20: A -0.585 ± 0.034 | C -0.045 ± 0.045 | E -0.033 ± 0.029 | F -0.914 ± 0.14 | G -0.487 ± 0.026 | H -0.141 ± 0.047 | K -0.3 ± 0.036 | L -0.656 ± 0.038 | M -0.685 ± 0.051 | N -0.419 ± 0.056 | P -0.896 ± 0.079 | Q -0.377 ± 0.047 | R -0.072 ± 0.026 | S -0.138 ± 0.032 | T -0.217 ± 0.037 | V -0.642 ± 0.032 | Y -0.57 ± 0.1
R21: A 0 ± 0.027 | C 0.009 ± 0.032 | D 0.071 ± 0.035 | E 0.043 ± 0.029 | G 0.025 ± 0.025 | H 0.029 ± 0.044 | K 0.063 ± 0.037 | M -0.016 ± 0.034 | N 0.047 ± 0.039 | P -0.691 ± 0.046 | S 0.068 ± 0.03 | T -0.037 ± 0.033 | V -0.205 ± 0.029 | W -0.24 ± 0.03 | Y 0.001 ± 0.095
Q22: A -0.019 ± 0.027 | C 0.042 ± 0.048 | D -0.014 ± 0.036 | E 0.072 ± 0.029 | F -0.281 ± 0.048 | G -0.109 ± 0.025 | H -0.044 ± 0.04 | I -0.094 ± 0.07 | K 0.027 ± 0.037 | L -0.074 ± 0.03 | M 0.004 ± 0.035 | P -0.726 ± 0.096 | R -0.001 ± 0.026 | S 0.007 ± 0.033 | T 0.06 ± 0.037 | V -0.039 ± 0.027 | W -0.552 ± 0.032 | Y 0.02 ± 0.079
L23: C -0.116 ± 0.035 | D 0.081 ± 0.039 | E 0.066 ± 0.03 | F -0.163 ± 0.049 | G -0.001 ± 0.025 | I -0.161 ± 0.075 | K -0.041 ± 0.04 | M -0.004 ± 0.036 | N -0.09 ± 0.056 | Q 0.058 ± 0.031 | S 0.014 ± 0.028 | T -0.001 ± 0.032 | V -0.048 ± 0.027 | W 0.001 ± 0.027
I24: A -0.121 ± 0.028 | C -0.043 ± 0.033 | D -0.427 ± 0.039 | E -0.457 ± 0.03 | F -0.173 ± 0.047 | H -0.312 ± 0.048 | K -0.138 ± 0.037 | L -0.068 ± 0.029 | M -0.041 ± 0.031 | N -0.407 ± 0.048 | R -0.171 ± 0.026 | S -0.31 ± 0.032 | T -0.052 ± 0.028 | V -0.051 ± 0.026 | Y -0.262 ± 0.049
C25: D -0.662 ± 0.072 | E -0.717 ± 0.041 | F -0.926 ± 0.12 | G -0.774 ± 0.031 | H -0.798 ± 0.088 | I -1.11 ± 0.22 | K -0.634 ± 0.043 | L -1.25 ± 0.1 | M -0.968 ± 0.079 | P -0.649 ± 0.054 | Q -0.65 ± 0.043 | R -0.728 ± 0.031 | V -1.08 ± 0.055 | W -1.02 ± 0.054
